Source: patent publication US20200308299A1 (NATIONAL UNIVERSITY CORPORATION KOCHI UNIVERSITY, published 2020)
Positions count from the first letter of the chain named.

B1: anti-Glypican-1 antibody clone K090-02a014 (antibody, mouse IgG2a, kappa, V domains shown)
VH: EVQLQQSGPELVKPGASVKISCKASGYSFTGYYIHWVKQSPEKSLEWIGEINPSTGDITYNQKFKAKATLTVDKSSSTAYMQLKSLTSDDSAVYYCARERNYDRFAYWGQGTLVTVSS
VL: SIVMTQTPALMAASPGEKVTITCSVSSSISSSNLHWYQQKSETSPKPWIYGTSNLASGVPVRFSGSGSGTSYSLTISSMEAEDAATYYCQQWSSYPLTFGAGTKLEIKR
notes: Selected as scFv on phage
B2: anti-Glypican-1 antibody clone K090-02a034 (antibody, mouse IgG2a, kappa, V domains shown)
VH: B1 VH with I34M, I58T, M81I, D89E
VL: QIVLSQSPAIMSASPGEKVTMTCSASSSVSYMYWYQQKPGSSPRLLIYDTSNLASGVPVRFSGSGSGTSYSLTISRMEAEDAATYYCQQWSSYPLTFGAGTKLELKR
notes: Selected as scFv on phage
B3: anti-Glypican-1 antibody clone K090-01a030 (antibody, mouse IgG2a, kappa, V domains shown)
VH: QVQLQQSGAELVRPGTSVKMSCKAAGYTFTNYWIGWVKQRPGHGLEWIGDIYPGGGYTHYNEKFKGKATLTADTSSSTAYMQLSSLTSEDSAIYYCARERVYYDGSRYFDVWGAGTTVTVSS
VL: DIKMTQSPKFLPVSAGDRVTMTCKASQSVGNNVAWYQQKPGQSPKLLIYYASNRYTGVPDRFTGSGSGTDFTFTISSVQVEDLAVYFCQQHYSSPWTFGGGTKLEIKR
notes: Selected as scFv on phage
B4: anti-Glypican-1 antibody clone K090-01a017 (antibody, mouse IgG2a, kappa, V domains shown)
VH: B3 VH with Q1E, A9G, I51L, Y103F
VL: B3 VL with D1S, K3V, S7T
notes: Selected as scFv on phage
B5: anti-Glypican-1 antibody clone K090-01a026 (antibody, mouse IgG2a, kappa, V domains shown)
VH: B3 VH with Q3H, Y108F
VL: B3 VL with K3V, T5S
notes: Selected as scFv on phage
B6: anti-Glypican-1 antibody clone K090-01a042 (antibody, mouse IgG2a, kappa, V domains shown)
VH: QVQLQQPGAELAKPGASVKMSCKASGYTFTRYWMHWVKQRPGQGLEWIGYINPSSGYTEYNQKFKDKATLTADKSSSTAYMQLSSLTSEDSAVYYCVRLGDYSYYFDYWGQGTTLTVSS
VL: DVVMTQTPLSLPVSLGDQASISCRSSQSIVHSNGNTYLEWYLQKPGQSPKLLIYKVSNRFSGVPDRFSGSGSGTDFTLKISRVEAEDLGVYYCFQGSHVPWTFGGGTKLELKR
notes: Selected as scFv on phage
B7: anti-Glypican-1 antibody clone K090-01a007 (antibody, mouse IgG2a, kappa, V domains shown)
VH: QVHLQQSGAELVKPGASVKLSCKASGYTFTSYWMHWVKQRPGQGLEWIGNIDPYDSETHYNQKFKDKATLTVDKSSSTAYMQLSSLTSEDSAVYYCARDSNWGYFDYWGQGTTLTVSS
VL: B6 VL with I29L, E39H, Y92F, F94S, G96S, S97T
notes: Selected as scFv on phage
B8: anti-Glypican-1 antibody clone K090-01a016 (antibody, mouse IgG2a, kappa, V domains shown)
VH: QVHLQQSGPELVKPGASVKISCKASGYTFTDYYINWVKQKPGQGLEWIGYIDPYNDGSKYNEKFKGKATLTSDKSSSTAYMELSSLTSEDSAVYYCARTPYYSFYSYGFYFDYWGQGTTLTVSS
VL: DIVLTQSPASLAVSLGQRATISCRASKSVSTSSYSYMHWYQQKPGQPPKLLIKYASYLESGVPARFSGSGSGTDFTLNIHPVEEEDAATYYCQHSREFPLTFGAGTKLELKR
notes: Selected as scFv on phage
B9: anti-Glypican-1 antibody clone K090-02a035 (antibody, mouse IgG2a, kappa, V domains shown)
VH: QVQLQQSGAELVKPGASVKLSCKTSGYTFTSYWMHWVKQRPGQGLEWIGNIDPSDSETHYNQKFKDKATLTVDKSSSTAYMQLSGLTSEDSAVYYCARNLGYWGQGTSVTVSS
VL: DIKMTQSPLSLPVSLGDQASISCRSSQSLVHSNGNTYLHWYLQKPGQSPKLLIYKVSNRFSGVPDRFSGSGSGTDFTLKISRVEAEDLGVYFCSQSTHVPYTFGGGTKLEIKR
notes: Selected as scFv on phage
B10: anti-Glypican-1 antibody clone K090-02a006 (antibody, mouse IgG2a, kappa, V domains shown)
VH: EVQLQQSGAELVKPGASVKISCRASGYSFTGYNMNWVKQSHGKSLEWIGNINPYYGTTNYNQKFKGKATLTVDKSSSTAYMQLNSLTSEDSAVYYCASDGYYGAMDYWGQGTSVTVSS
VL: DIKMTQSPKFMSTSVGDRVSVTCKASQNVGTYVAWYQQKPGQSPKALIYSASYRYSGVPDRFTGTGSGTDFTLTISNVQSEDLAEYFCQQYYNYPLTFGAGTKLELKR
notes: Selected as scFv on phage
B11: anti-Glypican-1 antibody clone K090-01a033 (antibody, mouse IgG2a, kappa, V domains shown)
VH: QVQLKQSGPELVKPGASVKISCKASGYSFTGYYMHWVKQSPEKSLEWIGEINPSTGDTTYNQKFKAKATLTVDKSSSTAYMQLKSLTSEDSAVYYCAREKRDDGVFAYWGQGTLVTVSS
VL: DIVMSQSPKSMSMSVGERVALSCKASENVGTYVSWYQQKPEQSPKLLIYGASNRYTGVPDRFTGSGSATDFTLTISSVQAEDLADYYCGQSYSYPLTFGAGTKLELKR
notes: Selected as scFv on phage; also called clone 01a033; anti-GPC1 monoclonal antibody (01a033)
B12: anti-Glypican-1 antibody clone K090-01a002 (antibody, mouse IgG2a, kappa, V domains shown)
VH: B11 VH with Q1E, K5Q, A24S, G31R, Q39H, F106L
VL: B3 VL with K3Q, W96L, G100A, I106L
notes: Selected as scFv on phage
B13: anti-Glypican-1 antibody clone K090-01a021 (antibody, mouse IgG2a, kappa, V domains shown)
VH: B11 VH with D57G
VL: B3 VL with D1S, K3V, S7T, T72P, W96L, G100A, I106L
notes: Selected as scFv on phage
B14: anti-Glypican-1 antibody clone K090-02a002 (antibody, mouse IgG2a, kappa, V domains shown)
VH: EVKLVESGGGLVKPGGSRKLSCAASGFTFSDYGMHWVRQAPEKGLEWVAYISSGSSTIYYADTVKGRFTISRDNAKNTLFLQMTSLRSEDTAMYYCARHSYYSYDVGGDYVMDYWGQGTSVTVSS
VL: DIVMSQSPKFMSTSVGDRVSITCKASQDVGTAVAWYQQKPGQSPKLLIYWASTRHTGVPDRFTGSGSGTDFTLTISNVQSEDLADYFCQQYSSYPLTFGAGTKLEIKR
notes: Selected as scFv on phage
B15: anti-Glypican-1 antibody clone K090-02b006 (antibody, mouse IgG2a, kappa, V domains shown)
VH: B14 VH with K3Q, M93I, A97V, S103N, V106I, D109Y, V111A
VL: DIVLTQSPSSLSASLGERVSLTCRASQEISGYLSWLQQKPDGTIKRLIYAASTLDSGVPKRFSGSRSGSDYSLTISSLESEDFADYYCLQYASYPLTFGAGTKLEIKR
notes: also called biotin-labeled 02b006; biotin-labeled anti-GPC1 antibody 02b006
B16: anti-Glypican-1 antibody clone K090-02a010 (antibody, mouse IgG2a, kappa, V domains shown)
VH: B14 VH with S52N, E89G
VL: B14 VL with M4L, S5T
notes: Selected as scFv on phage
B17: anti-Glypican-1 antibody clone K090-01a009 (antibody, mouse IgG2a, kappa, V domains shown)
VH: EVQLQQSGPELVKPGASVEISCKASGYSFTGYFMNWVKQSQGKSLEWIGRINPDNGDIFYNQKFKGKATLTVDKSSSTAHMELRSLTSEDSAVYYCARSWNWYFDVWGAGTTVTVSS
VL: DIQMTQSPASLSASVGETVTITCRASENIYSYLAWYQQKQGKSPQLLVYNAKTLAEGVPSRFSGSGSGTQFSLKINSLQPEDFGSYYCQHHYGTPYTFGSGTKLEIKR
notes: Selected as scFv on phage
B18: anti-Glypican-1 antibody clone K090-02a022 (antibody, mouse IgG2a, kappa, V domains shown)
VH: QVQLQQPGPELVKPGASVKMSCKASGYTFTDYYMNWVKQSHGKSLEWIGRVNPSNGGTSYNQKFKGKATLTVDKSLSTAYMQLNSLTSEDSAVYYCARSGENYYAMDYWGQGTSVTVSS
VL: B17 VL with A51G, P59S, H90N, T94V, Y96W, S100G
notes: Selected as scFv on phage
B19: GPC1-CL-MMAF (clone 01a033 conjugated to MC-vc-PAB-MMAF) (antibody, V domains shown)
VH: B11 VH
VL: B11 VL
modifications: MC-vc-PAB-MMAF bound by maleimide to reduced inter-strand cysteines; DAR 4.1 (printed as 3.8 in paragraph 359)
notes: Antibody-drug conjugate of mouse IgG2a clone 01a033; also called 01a033 ADC; GPC1 ADC

target: T1, human Glypican-1 (human, UniProt P35052 24-530, limits assumed); assay: phage scFv panning, ELISA on immobilised human GPC1, cell-ELISA and flow cytometry on human GPC1 transformants and TE14 (Example 1)
T1 construct: also called human GPC1
T1 sequence: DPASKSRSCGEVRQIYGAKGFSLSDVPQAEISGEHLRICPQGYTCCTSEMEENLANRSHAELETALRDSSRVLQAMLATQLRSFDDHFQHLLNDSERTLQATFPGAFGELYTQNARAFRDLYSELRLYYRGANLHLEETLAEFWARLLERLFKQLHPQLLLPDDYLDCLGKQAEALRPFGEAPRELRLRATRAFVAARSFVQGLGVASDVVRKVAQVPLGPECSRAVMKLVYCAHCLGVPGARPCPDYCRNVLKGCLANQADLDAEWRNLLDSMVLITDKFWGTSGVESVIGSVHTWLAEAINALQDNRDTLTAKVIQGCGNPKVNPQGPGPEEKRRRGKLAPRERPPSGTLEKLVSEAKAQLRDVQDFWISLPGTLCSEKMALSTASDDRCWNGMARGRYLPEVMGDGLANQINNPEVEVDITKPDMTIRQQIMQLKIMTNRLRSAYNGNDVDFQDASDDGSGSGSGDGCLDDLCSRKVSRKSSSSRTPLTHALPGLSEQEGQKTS

| Binder | binding result |
| --- | --- |
| B1 | binds |
| B2 | binds |
| B3 | binds |
| B4 | binds |
| B5 | binds |
| B6 | binds |
| B7 | binds |
| B8 | binds |
| B9 | binds |
| B10 | binds |
| B11 | binds |
| B12 | binds |
| B13 | binds |
| B14 | binds |
| B15 | binds |
| B16 | binds |
| B17 | binds |
| B18 | binds |

target: T2, mouse Glypican-1 expressed on LLC-mGPC1-16 cells (mouse, UniProt Q9QZF2 24-529); assay: cell-based or functional assay
T2 sequence: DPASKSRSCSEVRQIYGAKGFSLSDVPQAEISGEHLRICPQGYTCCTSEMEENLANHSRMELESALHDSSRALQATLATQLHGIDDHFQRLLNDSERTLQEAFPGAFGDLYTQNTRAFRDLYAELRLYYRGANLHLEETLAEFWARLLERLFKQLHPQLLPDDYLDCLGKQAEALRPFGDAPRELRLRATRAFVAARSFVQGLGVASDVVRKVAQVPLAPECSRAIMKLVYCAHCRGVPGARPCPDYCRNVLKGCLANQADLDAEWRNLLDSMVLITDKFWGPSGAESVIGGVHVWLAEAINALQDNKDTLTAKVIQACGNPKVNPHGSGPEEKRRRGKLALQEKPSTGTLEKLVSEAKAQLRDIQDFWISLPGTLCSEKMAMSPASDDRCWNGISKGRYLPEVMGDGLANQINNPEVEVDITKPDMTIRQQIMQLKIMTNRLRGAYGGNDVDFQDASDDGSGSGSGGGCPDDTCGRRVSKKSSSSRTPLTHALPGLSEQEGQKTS

| Binder | effect of suppressing growth (CellTiter-Glo, 72 hours), LLC-mGPC1-16 against LLC-control-7 |
| --- | --- |
| B19 | 17 fold |

target: T3, human Glypican-1 on the surface of human cancer cell strains (TE8, TE14 and others) (human, UniProt P35052 24-530); assay: flow cytometry on TE8 cells, biotin-labelled 02b006 and streptavidin-PE
T3 construct: Endogenous GPC1 of the cell strains; also called GPC1; GPC-1
T3 sequence: T1 sequence

| Binder | binding result |
| --- | --- |
| B15 | binds |

target: T4, recombinant human Glypican-1 protein (R&D Systems, CF, 4519-GP-050) (human, UniProt P35052 24-530); assay: ELISA on plate-coated recombinant human GPC1
T4 construct: Bought protein; also called recombinant human GPC1
T4 sequence: T1 sequence

| Binder | binding result |
| --- | --- |
| B19 | binds |
| B11 | binds |
